Measurements from US20210113678A1 (ENTEROME S A, published 2021).
Values belong to the binder of their own block, whether it stands above or below them.

Assays:
[1] = target: T1, HLA-A*0201 molecule on human T2 cells (human); assay: T2 cells expressing HLA-A*0201, anti-HLA-A2-PE, FACS
T1 construct: read out with anti-HLA-A2 antibody BB7.2-PE; also called HLA-A2

[2] = target: T1, HLA-A*0201 molecule on human T2 cells; assay: as above; remark: listed apart in the source

mean relative fluorescence intensity at 1.5625 µM peptide [1]: 5.3 % of HIV peptide
mean relative fluorescence intensity at 3.125 µM peptide [1]: 0.9 % of HIV peptide
mean relative fluorescence intensity at 6.25 µM peptide [1]: 19.7 % of HIV peptide
mean relative fluorescence intensity at 25 µM peptide [1]: 65.4 % of HIV peptide
mean relative fluorescence intensity at 50 µM peptide [1]: 62.5 % of HIV peptide
mean relative fluorescence intensity at 100 µM peptide [1]: 77.6 % of HIV peptide
Concentration of peptide that induces 20% of HLA-A2 expression [2]: 12.6 µM
In vitro binding affinity (relative to reference peptide HIV pol 589-597) [2]: 2.5
Binder: LMDLSTTPL (Fragment of human FOXM1) [FOXM1-H2]

mean relative fluorescence intensity at 1.5625 µM peptide [1]: 15.9 % of HIV peptide
mean relative fluorescence intensity at 3.125 µM peptide [1]: 30.4 % of HIV peptide
mean relative fluorescence intensity at 6.25 µM peptide [1]: 36 % of HIV peptide
mean relative fluorescence intensity at 25 µM peptide [1]: 49.3 % of HIV peptide
mean relative fluorescence intensity at 50 µM peptide [1]: 65.7 % of HIV peptide
mean relative fluorescence intensity at 100 µM peptide [1]: 80.9 % of HIV peptide
Concentration of peptide that induces 20% of HLA-A2 expression [2]: 1.1 µM
In vitro binding affinity (relative to reference peptide HIV pol 589-597) [2]: 0.1
Binder: SMEELLWFV [TYMS-B]

mean relative fluorescence intensity at 1.5625 µM peptide [1]: 10.7 % of HIV peptide
mean relative fluorescence intensity at 3.125 µM peptide [1]: 21.5 % of HIV peptide
mean relative fluorescence intensity at 6.25 µM peptide [1]: 27.5 % of HIV peptide
mean relative fluorescence intensity at 25 µM peptide [1]: 61.1 % of HIV peptide
mean relative fluorescence intensity at 50 µM peptide [1]: 62 % of HIV peptide
mean relative fluorescence intensity at 100 µM peptide [1]: 71.3 % of HIV peptide
Concentration of peptide that induces 20% of HLA-A2 expression [2]: 2.7 µM
In vitro binding affinity (relative to reference peptide HIV pol 589-597) [2]: 0.2
Binder: FLDSLGFSL [TYMS-B2]

mean relative fluorescence intensity at 1.5625 µM peptide [1]: 8.6 % of HIV peptide
mean relative fluorescence intensity at 3.125 µM peptide [1]: 15.3 % of HIV peptide
mean relative fluorescence intensity at 6.25 µM peptide [1]: 26.6 % of HIV peptide
mean relative fluorescence intensity at 25 µM peptide [1]: 38.1 % of HIV peptide
mean relative fluorescence intensity at 50 µM peptide [1]: 40.4 % of HIV peptide
mean relative fluorescence intensity at 100 µM peptide [1]: 50.2 % of HIV peptide
Concentration of peptide that induces 20% of HLA-A2 expression [2]: 4.1 µM
In vitro binding affinity (relative to reference peptide HIV pol 589-597) [2]: 0.3
Binder: VLEELLWFI (Fragment of human TYMS) [TYMS-H]

mean relative fluorescence intensity at 1.5625 µM peptide [1]: 0 % of HIV peptide
mean relative fluorescence intensity at 3.125 µM peptide [1]: 0 % of HIV peptide
mean relative fluorescence intensity at 6.25 µM peptide [1]: 0 % of HIV peptide
mean relative fluorescence intensity at 25 µM peptide [1]: 7.6 % of HIV peptide
mean relative fluorescence intensity at 50 µM peptide [1]: 21.3 % of HIV peptide
mean relative fluorescence intensity at 100 µM peptide [1]: 47.5 % of HIV peptide
Concentration of peptide that induces 20% of HLA-A2 expression [2]: 46.7 µM
In vitro binding affinity (relative to reference peptide HIV pol 589-597) [2]: 4.6
Binder: RLSSYLVEI [FOXM1-B]

mean relative fluorescence intensity at 1.5625 µM peptide [1]: 7.2 % of HIV peptide
mean relative fluorescence intensity at 3.125 µM peptide [1]: 12.7 % of HIV peptide
mean relative fluorescence intensity at 6.25 µM peptide [1]: 33.5 % of HIV peptide
mean relative fluorescence intensity at 25 µM peptide [1]: 98.2 % of HIV peptide
mean relative fluorescence intensity at 50 µM peptide [1]: 91.5 % of HIV peptide
mean relative fluorescence intensity at 100 µM peptide [1]: 105 % of HIV peptide
Concentration of peptide that induces 20% of HLA-A2 expression [2]: 6.7 µM
In vitro binding affinity (relative to reference peptide HIV pol 589-597) [2]: 1.3
Binder: LMDLSTTEV [FOXM1-B2]

mean relative fluorescence intensity at 1.5625 µM peptide [1]: 3 % of HIV peptide
mean relative fluorescence intensity at 3.125 µM peptide [1]: 3.7 % of HIV peptide
mean relative fluorescence intensity at 6.25 µM peptide [1]: 9.6 % of HIV peptide
mean relative fluorescence intensity at 25 µM peptide [1]: 11.2 % of HIV peptide
mean relative fluorescence intensity at 50 µM peptide [1]: 14.2 % of HIV peptide
mean relative fluorescence intensity at 100 µM peptide [1]: 26.5 % of HIV peptide
Binder: WLPFGFILI (Fragment of human IL13RA2) [IL13RA2-H]

mean relative fluorescence intensity at 1.5625 µM peptide [1]: 0 % of HIV peptide
mean relative fluorescence intensity at 3.125 µM peptide [1]: 0 % of HIV peptide
mean relative fluorescence intensity at 6.25 µM peptide [1]: 0 % of HIV peptide
mean relative fluorescence intensity at 25 µM peptide [1]: 10.5 % of HIV peptide
mean relative fluorescence intensity at 50 µM peptide [1]: 30.7 % of HIV peptide
mean relative fluorescence intensity at 100 µM peptide [1]: 83.8 % of HIV peptide
Concentration of peptide that induces 20% of HLA-A2 expression [2]: 37.6 µM
In vitro binding affinity (relative to reference peptide HIV pol 589-597) [2]: 3.7
Binder: RVSSYLVPI (Fragment of human FOXM1) [FOXM1-H]

mean relative fluorescence intensity at 1.5625 µM peptide [1]: 0 % of HIV peptide
mean relative fluorescence intensity at 3.125 µM peptide [1]: 0 % of HIV peptide
mean relative fluorescence intensity at 6.25 µM peptide [1]: 0 % of HIV peptide
mean relative fluorescence intensity at 25 µM peptide [1]: 13.3 % of HIV peptide
mean relative fluorescence intensity at 100 µM peptide [1]: 78.2 % of HIV peptide
Concentration of peptide that induces 20% of HLA-A2 expression [2]: 39.2 µM
In vitro binding affinity (relative to reference peptide HIV pol 589-597) [2]: 7.8
Binder: SMFRVLIGT (Fragment of human EZH2) [EZH2-H2]

More lines, now with the values behind:

Binder: YTLGEFLYI [BIRC5-B2]
mean relative fluorescence intensity at 3.125 µM peptide [1]: 6.6 % of HIV peptide
mean relative fluorescence intensity at 6.25 µM peptide [1]: 9 % of HIV peptide
mean relative fluorescence intensity at 25 µM peptide [1]: 29.6 % of HIV peptide
mean relative fluorescence intensity at 50 µM peptide [1]: 54.4 % of HIV peptide
mean relative fluorescence intensity at 100 µM peptide [1]: 58 % of HIV peptide
Concentration of peptide that induces 20% of HLA-A2 expression [2]: 14.7 µM
In vitro binding affinity (relative to reference peptide HIV pol 589-597) [2]: 4.5

Binder: ILDEAYVRV [EGFR-B]
mean relative fluorescence intensity at 1.5625 µM peptide [1]: 12.7 % of HIV peptide
mean relative fluorescence intensity at 3.125 µM peptide [1]: 22.7 % of HIV peptide
mean relative fluorescence intensity at 6.25 µM peptide [1]: 29.2 % of HIV peptide
mean relative fluorescence intensity at 25 µM peptide [1]: 53.2 % of HIV peptide
mean relative fluorescence intensity at 50 µM peptide [1]: 66.7 % of HIV peptide
mean relative fluorescence intensity at 100 µM peptide [1]: 70.3 % of HIV peptide
Concentration of peptide that induces 20% of HLA-A2 expression [2]: 3.1 µM
In vitro binding affinity (relative to reference peptide HIV pol 589-597) [2]: 0.2

Binder: AVFRVLIPV [EZH2-B2]
mean relative fluorescence intensity at 1.5625 µM peptide [1]: 0 % of HIV peptide
mean relative fluorescence intensity at 3.125 µM peptide [1]: 0 % of HIV peptide
mean relative fluorescence intensity at 6.25 µM peptide [1]: 0.5 % of HIV peptide
mean relative fluorescence intensity at 25 µM peptide [1]: 74.8 % of HIV peptide
mean relative fluorescence intensity at 100 µM peptide [1]: 112 % of HIV peptide
Concentration of peptide that induces 20% of HLA-A2 expression [2]: 8.3 µM
In vitro binding affinity (relative to reference peptide HIV pol 589-597) [2]: 1.7

Binder: GLLGEFLQI (also called B1RC5-B3) [BIRC5-B3]
mean relative fluorescence intensity at 1.5625 µM peptide [1]: 9.4 % of HIV peptide
mean relative fluorescence intensity at 3.125 µM peptide [1]: 8.9 % of HIV peptide
mean relative fluorescence intensity at 25 µM peptide [1]: 20.9 % of HIV peptide
mean relative fluorescence intensity at 50 µM peptide [1]: 29.8 % of HIV peptide
mean relative fluorescence intensity at 100 µM peptide [1]: 35 % of HIV peptide
Concentration of peptide that induces 20% of HLA-A2 expression [2]: 22.9 µM
In vitro binding affinity (relative to reference peptide HIV pol 589-597) [2]: 7

Binder: LLLSAALSA (Fragment of human CHI3L1) [CHI3L1H]
mean relative fluorescence intensity at 1.5625 µM peptide [1]: -1.9 % of HIV peptide
mean relative fluorescence intensity at 3.125 µM peptide [1]: 1 % of HIV peptide
mean relative fluorescence intensity at 6.25 µM peptide [1]: 4.4 % of HIV peptide
mean relative fluorescence intensity at 25 µM peptide [1]: 4.9 % of HIV peptide
mean relative fluorescence intensity at 50 µM peptide [1]: 14.5 % of HIV peptide
mean relative fluorescence intensity at 100 µM peptide [1]: 11.2 % of HIV peptide

Binder: LLLSAALSV [CHI3L1B]
mean relative fluorescence intensity at 1.5625 µM peptide [1]: 13.5 % of HIV peptide
mean relative fluorescence intensity at 3.125 µM peptide [1]: 23.9 % of HIV peptide
mean relative fluorescence intensity at 6.25 µM peptide [1]: 44 % of HIV peptide
mean relative fluorescence intensity at 25 µM peptide [1]: 45.3 % of HIV peptide
mean relative fluorescence intensity at 50 µM peptide [1]: 85 % of HIV peptide
mean relative fluorescence intensity at 100 µM peptide [1]: 58.9 % of HIV peptide
Concentration of peptide that induces 20% of HLA-A2 expression [2]: 3.6 µM
In vitro binding affinity (relative to reference peptide HIV pol 589-597) [2]: 0.9

Binder: YLLSAALTI [CHI3L1B3]
mean relative fluorescence intensity at 1.5625 µM peptide [1]: 2.5 % of HIV peptide
mean relative fluorescence intensity at 3.125 µM peptide [1]: 14.3 % of HIV peptide
mean relative fluorescence intensity at 6.25 µM peptide [1]: 30.2 % of HIV peptide
mean relative fluorescence intensity at 25 µM peptide [1]: 36.7 % of HIV peptide
mean relative fluorescence intensity at 50 µM peptide [1]: 108 % of HIV peptide
mean relative fluorescence intensity at 100 µM peptide [1]: 76.9 % of HIV peptide
Concentration of peptide that induces 20% of HLA-A2 expression [2]: 8.6 µM
In vitro binding affinity (relative to reference peptide HIV pol 589-597) [2]: 2.2

Binder: FLDSLGFST [TYMS-H2]
mean relative fluorescence intensity at 1.5625 µM peptide [1]: 1.6 % of HIV peptide
mean relative fluorescence intensity at 3.125 µM peptide [1]: 4.5 % of HIV peptide
mean relative fluorescence intensity at 6.25 µM peptide [1]: 6.1 % of HIV peptide
mean relative fluorescence intensity at 25 µM peptide [1]: 32.5 % of HIV peptide
mean relative fluorescence intensity at 50 µM peptide [1]: 37.2 % of HIV peptide
mean relative fluorescence intensity at 100 µM peptide [1]: 50.6 % of HIV peptide
Concentration of peptide that induces 20% of HLA-A2 expression [2]: 9.5 µM
In vitro binding affinity (relative to reference peptide HIV pol 589-597) [2]: 0.8

Binder: FMVEDETVL (Fragment of human EZH2) [EZH2-H]
mean relative fluorescence intensity at 1.5625 µM peptide [1]: 0 % of HIV peptide
mean relative fluorescence intensity at 3.125 µM peptide [1]: 0.7 % of HIV peptide
mean relative fluorescence intensity at 6.25 µM peptide [1]: 10.6 % of HIV peptide
mean relative fluorescence intensity at 25 µM peptide [1]: 40.7 % of HIV peptide
mean relative fluorescence intensity at 50 µM peptide [1]: 66 % of HIV peptide
mean relative fluorescence intensity at 100 µM peptide [1]: 95.4 % of HIV peptide
Concentration of peptide that induces 20% of HLA-A2 expression [2]: 13.3 µM
In vitro binding affinity (relative to reference peptide HIV pol 589-597) [2]: 1.1
